Measurements taken from the supplement of paper PMC9112550, “Optimization of the antimicrobial peptide Bac7 by deep mutational scanning” (BMC Biology, 2022).

Test system: Escherichia coli TOP10
Assay: shrunken log2 fold change of peptide-encoding DNA abundance (4.5 h post-induction vs induction); higher = less antimicrobial activity (less host growth inhibition)
Conditions: time post-induction: 4.5 h; library: site-saturation at positions 5, 18, 19, 20
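Also: peptides expressed intracellularly from a pBAD plasmid library in pooled LB shake-flask culture, induced with 0.3% L-arabinose, DNA abundance read by NGS, three biological replicates, DESeq2 with apeglm shrinkage.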

Sequence	shrunken log2 fold change
RRIRCRPPRLPRPRPRPACVPRP	0.211
RRIRLRPPRLPRPRPRPQWQPRP	0.0949
RRIRSRPPRLPRPRPRPVRPPRP	0.742
RRIRNRPPRLPRPRPRPPDRPRP	0.00517
RRIRCRPPRLPRPRPRPWIMPRP	-0.275
RRIRCRPPRLPRPRPRPQWWPRP	0.433
RRIRNRPPRLPRPRPRPAIWPRP	0.13
RRIRSRPPRLPRPRPRPFPQPRP	-0.201
RRIRIRPPRLPRPRPRPESGPRP	-0.135
RRIRMRPPRLPRPRPRPQDAPRP	0.0668
RRIRMRPPRLPRPRPRPGRHPRP	0.441
RRIRMRPPRLPRPRPRPCLLPRP	-0.0289
RRIRHRPPRLPRPRPRPFKIPRP	-0.192
RRIRGRPPRLPRPRPRPNRSPRP	-0.0578
RRIRQRPPRLPRPRPRPDIQPRP	0.00127
RRIRYRPPRLPRPRPRPWCPPRP	-0.28
RRIRHRPPRLPRPRPRPSRLPRP	0.39
RRIRSRPPRLPRPRPRPMATPRP	0.0201
RRIRDRPPRLPRPRPRPSEWPRP	-0.0637
RRIRPRPPRLPRPRPRPNPPPRP	0.188
RRIRFRPPRLPRPRPRPLHWPRP	0.0916
RRIRERPPRLPRPRPRPCNQPRP	-0.296
RRIRSRPPRLPRPRPRPFCEPRP	-0.0573
RRIRQRPPRLPRPRPRPGPNPRP	-0.0457
RRIRARPPRLPRPRPRPEDGPRP	1.48

Sequence	shrunken log2 fold change
RRIRTRPPRLPRPRPRPANLPRP	-0.0546
RRIRDRPPRLPRPRPRPNVRPRP	-0.275
RRIRDRPPRLPRPRPRPVIWPRP	0.0861
RRIRFRPPRLPRPRPRPYCLPRP	-0.341
RRIRPRPPRLPRPRPRPEVVPRP	0.0581
RRIRKRPPRLPRPRPRPDPHPRP	-0.0362
RRIRYRPPRLPRPRPRPGFCPRP	-0.266
RRIRNRPPRLPRPRPRPRQMPRP	0.0821
RRIRQRPPRLPRPRPRPQNPPRP	-0.0336
RRIRRRPPRLPRPRPRPWAGPRP	0.0855
RRIRDRPPRLPRPRPRPFITPRP	-0.118
RRIRLRPPRLPRPRPRPFNPPRP	-0.349
RRIRARPPRLPRPRPRPLMPPRP	0.197
RRIRGRPPRLPRPRPRPWHLPRP	-0.188
RRIRPRPPRLPRPRPRPYHPPRP	-0.246
RRIRSRPPRLPRPRPRPEVGPRP	0.726
RRIRMRPPRLPRPRPRPQWDPRP	0.232
RRIRDRPPRLPRPRPRPYFSPRP	-0.345
RRIRSRPPRLPRPRPRPENKPRP	-0.125
RRIRMRPPRLPRPRPRPRVHPRP	0.446
RRIRSRPPRLPRPRPRPADWPRP	0.405
RRIRNRPPRLPRPRPRPEMDPRP	0.294
RRIRERPPRLPRPRPRPVVYPRP	-0.945
RRIRQRPPRLPRPRPRPWNQPRP	-0.0236
RRIRARPPRLPRPRPRPRRDPRP	0.656

Sequence	shrunken log2 fold change
RRIRVRPPRLPRPRPRPTGSPRP	-0.133
RRIRMRPPRLPRPRPRPAPMPRP	0.953
RRIRGRPPRLPRPRPRPEWIPRP	0.142
RRIRPRPPRLPRPRPRPRHEPRP	0.0886
RRIRRRPPRLPRPRPRPAVCPRP	0.66
RRIRLRPPRLPRPRPRPCDSPRP	-0.165
RRIRCRPPRLPRPRPRPLVVPRP	-0.347
RRIRPRPPRLPRPRPRPWHAPRP	-0.0857
RRIRLRPPRLPRPRPRPRGVPRP	0.494
RRIRCRPPRLPRPRPRPQSMPRP	-0.419
RRIRRRPPRLPRPRPRPKQFPRP	-0.00581
RRIRKRPPRLPRPRPRPQGAPRP	0.451
RRIRHRPPRLPRPRPRPVQLPRP	-0.0712
RRIRKRPPRLPRPRPRPMIHPRP	-0.00347
RRIRCRPPRLPRPRPRPCCSPRP	-0.321
RRIRKRPPRLPRPRPRPLVHPRP	0.0415
RRIRWRPPRLPRPRPRPRDSPRP	-0.299
RRIRGRPPRLPRPRPRPDGSPRP	0.85
RRIRTRPPRLPRPRPRPRRLPRP	0.172
RRIRLRPPRLPRPRPRPVHMPRP	-0.0691
RRIRSRPPRLPRPRPRPRDFPRP	0.528
RRIRSRPPRLPRPRPRPKQKPRP	-0.000384
RRIRMRPPRLPRPRPRPLPAPRP	2.13
RRIRKRPPRLPRPRPRPYPEPRP	-0.0874
RRIRMRPPRLPRPRPRPICHPRP	0.0206

Sequence	shrunken log2 fold change
RRIRARPPRLPRPRPRPTAFPRP	0.815
RRIRARPPRLPRPRPRPCCSPRP	0.0121
RRIRVRPPRLPRPRPRPMALPRP	-0.169
RRIRTRPPRLPRPRPRPTDEPRP	0.491
RRIRTRPPRLPRPRPRPSQKPRP	0.039
RRIRMRPPRLPRPRPRPEDRPRP	-0.0526
RRIRTRPPRLPRPRPRPFIRPRP	0.00496
RRIRMRPPRLPRPRPRPFNKPRP	-0.52
RRIRVRPPRLPRPRPRPVKHPRP	-0.3
RRIRGRPPRLPRPRPRPFWEPRP	0.577
RRIRARPPRLPRPRPRPMALPRP	0.272
RRIRTRPPRLPRPRPRPRREPRP	0.351
RRIRSRPPRLPRPRPRPPFRPRP	0.193
RRIRVRPPRLPRPRPRPERTPRP	-0.111
RRIRVRPPRLPRPRPRPRNCPRP	-0.129
RRIRSRPPRLPRPRPRPMEEPRP	-0.01
RRIRSRPPRLPRPRPRPGQQPRP	0.0543
RRIRMRPPRLPRPRPRPWGKPRP	0.0449
RRIRERPPRLPRPRPRPQLCPRP	0.0651
RRIRSRPPRLPRPRPRPQPRPRP	0.285
RRIRGRPPRLPRPRPRPYMAPRP	-0.388
RRIRERPPRLPRPRPRPWLEPRP	0.101
RRIRVRPPRLPRPRPRPEWCPRP	0.323
RRIRPRPPRLPRPRPRPSCSPRP	-0.538
RRIRPRPPRLPRPRPRPTIMPRP	-0.335

Sequence	shrunken log2 fold change
RRIRDRPPRLPRPRPRPREFPRP	-0.0261
RRIRMRPPRLPRPRPRPGMVPRP	0.263
RRIRYRPPRLPRPRPRPTYVPRP	-0.0567
RRIRTRPPRLPRPRPRPHFDPRP	-0.385
RRIRVRPPRLPRPRPRPEMGPRP	0.104
RRIRVRPPRLPRPRPRPINCPRP	-0.12
RRIRQRPPRLPRPRPRPFLCPRP	-0.336
RRIRERPPRLPRPRPRPQQPPRP	0.166
RRIRMRPPRLPRPRPRPMWWPRP	-0.00447
RRIRNRPPRLPRPRPRPNVMPRP	-0.16
RRIRQRPPRLPRPRPRPNMPPRP	-0.634
RRIRLRPPRLPRPRPRPDRPPRP	0.265
RRIRERPPRLPRPRPRPRCPPRP	0.00202
RRIRDRPPRLPRPRPRPYEAPRP	-0.108
RRIRWRPPRLPRPRPRPRITPRP	0.00862
RRIRYRPPRLPRPRPRPGMMPRP	-0.426
RRIRERPPRLPRPRPRPVLCPRP	0.0605
RRIRSRPPRLPRPRPRPIGLPRP	0.074
RRIRWRPPRLPRPRPRPVFVPRP	-0.0738
RRIRTRPPRLPRPRPRPSHSPRP	-0.399
RRIRFRPPRLPRPRPRPNCKPRP	-0.0929
RRIRNRPPRLPRPRPRPCWEPRP	-0.0598
RRIRERPPRLPRPRPRPEHWPRP	0.0984
RRIRPRPPRLPRPRPRPFCVPRP	0.156
RRIRNRPPRLPRPRPRPTIIPRP	-0.905
